T1: O. sativa 14-3-3 Protein Homolog GF14-c, bait fragment aa 1-150 (Oryza sativa, UniProt Q6ZKC0 1-150)
T1 construct: bait; also called OsGF14-c; PN12464
T1 sequence: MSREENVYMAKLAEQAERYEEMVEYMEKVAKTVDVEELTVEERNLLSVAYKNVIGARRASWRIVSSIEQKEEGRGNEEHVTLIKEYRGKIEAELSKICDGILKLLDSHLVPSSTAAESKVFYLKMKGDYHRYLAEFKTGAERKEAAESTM

T2: O. sativa Cellulose Synthase Catalytic Subunit, RSW1-Like, bait fragment aa 316-583 (Oryza sativa, UniProt A2Y0X2 316-583)
T2 construct: bait; also called OsCS; PN19707
T2 sequence: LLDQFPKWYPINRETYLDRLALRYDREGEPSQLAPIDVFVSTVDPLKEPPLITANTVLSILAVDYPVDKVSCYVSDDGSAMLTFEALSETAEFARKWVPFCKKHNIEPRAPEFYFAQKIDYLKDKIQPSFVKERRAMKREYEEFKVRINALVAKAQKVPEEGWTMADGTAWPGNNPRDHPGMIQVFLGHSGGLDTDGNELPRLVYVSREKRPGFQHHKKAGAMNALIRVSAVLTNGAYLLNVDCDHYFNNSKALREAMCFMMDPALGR

B1: Novel Protein PN29982, prey clone aa 201-300 (other)
chain: SPVVDNADVTETKPQTELPVHVMCAEWSSQKRLKKVQLETLERVYSRTKRPTNTMISSIVQVTSLPRKTIVKWFEDRREQDGVPDHRVAFKRSLSETIAS
notes: prey; AD fusion; input trait library; also called OsPN29982
B2: Novel Protein PN22866, Fragment, Similar to A. thaliana Vacuolar ATP Synthase Subunit C, prey clone aa 95-305 (other)
chain: LLALSDDLVKSNVFIEGVSHKIRRQIEELERAGGVESGALTVDGVPVDTYLTRFVWDEGKYPTMSPLKEIAGSIQSQVSKIEDDMKVRGAEYNNVRSQLNAINRKQTGSLAVRDLSNLVKPEDMVTSEHLVTLLAVVPQYSQKDWLSSYESLDTFVVPRSSKKLYEDNEYALYTVTLFAKVVDNFKVRAREKGFQVRDFEYSSEAQESRKE
notes: prey; AD fusion; input trait library; also called OsPN22866
B3: OsContig4331, O. sativa Putative 33 kDa Oxygen-Evolving Protein of Photosystem II, prey clone aa 90-169 (other)
chain: PRRLTFDEIQSKTYMEVKGTGTANQCPTVEGGVDSFAFKAGKYNMKKFCLEPTSFTVKAEGVAKNAPPEFQKTKLMTRLT
notes: prey; AD fusion; input trait library; also called OsPN23059
B4: Novel Protein PN30846 (putative dynamin homolog), prey clone aa 1-266 (other)
chain: APRRPSTFLNAVALGNVGAGKSAVLNSLIGHPVLPTGENGATRAPIVVDLQRDPGLSSKSIVLQIDSKSQRVSASSLRHSLQDRLSKGASSGSSRGRVEGINLKLRTSTAPPLKLVDLPGIDQRAVDDPMINEYAGHNDAILLVVIPAMQAADVASSRALRLAKDIDADGTRTVGVISKVDQAEGDAKTIACVQALLLNKGPKNLPDIEWVALIGQSVAIASAQAAGSENSLETAWNAEAETLRSILTGAPKSKLGRIALVDTIAK
notes: prey; AD fusion; input trait library; also called OsPN30846
B5: O. sativa Fructose-Bisphosphate Aldolase, Chloroplast Precursor, prey clone aa 206-269 (enzyme)
chain: QDNGLVPIVEPEILLDGEHGIDRTFEVAQKVWAETFFYMAENNVMFEGILLKPSMVTPGAECKD
notes: prey; AD fusion; input trait library; also called OsBAA02730; PN22832
B6: O. sativa 3-Phosphoshikimate 1-carboxyvinyltransferase (a.k.a. EPSP Synthase), prey clone aa 463-511 (enzyme)
chain: AIDTYDDHRMAMAFSLAACADVPVTIRDPGCTRKTFPNYFDVLSTFVRN
notes: prey; AD fusion; input trait library; also called OsBAB61062; PN22844
B7: O. sativa Photosystem II 10 kDa Polypeptide, prey clone aa 82-126 (other)
chain: SPEEWSPTGDTYVGGTTGLLIWAVTLAGLLGGGALLVYNTSALAG
notes: prey; AD fusion; input trait library; also called OsAAB46718; PN22840
B8: Novel Protein 22858, Fragment, similar to Arabidopsis GTP Cyclohydrolase II, prey clone aa 27-154 (other)
chain: DKPTDGFSSIDEAIGALHEGKFVIAVDDESGDNEGDLVMAATLADPESIAFMIRNGSGIISVGMKEEDLTRLMIPMMSPIAEIEDISAAASTVTVDARVGISTGVSAADRAKTIFTLASPDSKPTDLR
notes: prey; AD fusion; input trait library; also called OsPN22858
B9: Novel Protein PN30974, prey clone aa 38-178 (other)
chain: GGYDHPGLIPGLPDEISLQILARMPRMGYLNAKMVSRSWKAAITGVELYRVRKELGVSEEWLYMLTKSDDGKLVWNAFDPVCGQWQRLPLMPGISHGGECKRGIPGLWLGDLLSAGIRVSDVIRGWLGQRDSLDRLPFCGC
notes: prey; AD fusion; input trait library; also called OsPN30974
B10: O. sativa Ribulose Bisphosphate Carboxylase/Oxygenase Activase, Large Isoform A1, prey clone aa 68-210 (enzyme)
chain: DISDDQQDITRGKGFVDSLFQAPTGDGTHEAVLSSYEYLSQGLRTYDFDNTMGGFYIAPAFMDKLVVHISKNFMTLPNIKVPLILGIWGGKGQGKSFQCELVFAKMGINPIMMSAGELESGNAGEPAKLIRQRYREAADIIKK
notes: prey; AD fusion; input trait library; also called OsRCAA1; PN19842
B11: Novel Protein 22874, Fragment, similar to Arabidopsis Putative Phosphatidylinositol-4-phosphate 5-kinase, prey clone aa 1-88 (other)
chain: GTNPGFRVGEIRLSNRDIYFGTLLGNTPEGSGRYVWSDGCTYDGEWRRGMRHGQGKTMWPSGATYEGEYSGGYIYGEGTYTGSDNIVY
notes: prey; AD fusion; input trait library; also called OsPN22874; rice PI4P5K
B12: Hypothetical Protein OsContig3864, Similar to H. vulgare Photosystem I Reaction Center Subunit II, Chloroplast Precursor, prey clone aa 94-203 (other)
chain: VITWTSPKEQVFEMPTGGAAIMREGPNLLKLARKEQCLALGTRLRSKYKINYQFYRVFPNGEVQYLHPKDGVYPEKVNAGRQGVGQNFRSIGKNVSPIEVKFTGKNVFDI
notes: prey; AD fusion; input trait library; also called OsPN23061
B13: OsContig4331, O. sativa Putative 33 kDa Oxygen-Evolving Protein of Photosystem II, prey clone aa 193-333 (other)
chain: DGIDYAAVTVQLPGGERVPFLFTIKNLVATGKPESFGGPFLVPSYRGSSFLDPKGRGGSTGYDNAVALPAGGRGDEEELAKENVKNASSSTGNITLSVTKSKPETGEVIGVFESVQPSDTDLGAKVPKDVKIQGVWYAQLE
notes: as for B3
B14: O. sativa Aquaporin, prey clone aa 123-290 (other)
chain: RKVSLVRAILYIVAQCLGAICGVGLVNAFPNAYFNRYGGGANTLAAGYSKGTGLAAEIIGTFVLVYTVFSATDPKRNARDSHVPVLAPLPIGFAVFMVHLATIPITGTGINPARSIGAAVIFNNEKAWHNHWIFWVGPFVGAAIAAFYHQYILRAGAIKALGSFRSNA
notes: prey; AD fusion; output trait library; also called OsPIP2A; OsPIP2a
B15: Novel Protein PN29077, Fragment, Similar to A. thaliana DNA-Damage Inducible Protein DDI1-Like, prey clone aa 1-242 (other)
chain: VEAQKKIEAAIRQKGIDENWEAALEHNPEAFARVVMLYVDMEVNGVPLKAFVDSGAQSTIISKSCAERCGLLRLLDQRYRGVAIGVGQSEILGRIHVAPIKIGHVFYPCSFTVLDAPNMEFLFGLDMLRKHQCIIDLKDNVLRVGGGEVSVPFLQEKDIPSHIRDEEKLSKLASLSQGAAGESSTAREKTPDAPPRAPTTGAPAVNPPQPQGGGDFEAKVTKLVELGFDRASVIQALKLFNG
notes: prey; AD fusion; output trait library; four clones; also called OsPN29077
B16: O. sativa Cellulose Synthase Catalytic Subunit, RSW1-Like, prey clone aa 316-582 (enzyme)
chain: LLDQFPKWYPINRETYLDRLALRYDREGEPSQLAPIDVFVSTVDPLKEPPLITANTVLSILAVDYPVDKVSCYVSDDGSAMLTFEALSETAEFARKWVPFCKKHNIEPRAPEFYFAQKIDYLKDKIQPSFVKERRAMKREYEEFKVRINALVAKAQKVPEEGWTMADGTAWPGNNPRDHPGMIQVFLGHSGGLDTDGNELPRLVYVSREKRPGFQHHKKAGAMNALIRVSAVLTNGAYLLNVDCDHYFNNSKALREAMCFMMDPALG
notes: prey; AD fusion; input trait library; also called OsCS; PN19707
B17: Novel Protein PN29115, Fragment, Similar to A. thaliana 6,7-Dimethyl-8-Ribityllumazine Synthase Precursor, prey clone aa 1-188 (other)
chain: VSFPYSPRPAALAAGARASRVSPVVVAAGGGHQRLMGSLTNTQGLRFGVVVARFNEIVTNLLLQGALETFERYSVKKENITVLSVPGSFEIPVAAQKLGKSGKFDANFVHWRCAFRGDTTHYGAVANSAASGVLSAGLSAEIPCIFGVLTCDDMDQALNRAGGKAGNKGAEAALTAIEMASLFQHHLA
notes: prey; AD fusion; output trait library; also called OsPN29115
B18: Novel Protein PN29117, prey clone aa 1-151 (printed -7-151) (other)
chain: MLVQRRDGDTGPAVRLRVSHGASFRDVAVPAHSTFGELKGVLTQATGVEPERQRLFFRGKEKSDNEFLHTAGVKDGAKLLLLEKPAPANVEQRAEPVIMDESMMKACEAVGRVRAEVDRLSAKVCDLEKSVFAGRKIEDKDFVVLTELLMM
notes: prey; AD fusion; output trait library; clone also holds a small portion (-7 to 0) of the 5' untranslated region; also called OsPN29117; BAG-like protein
B19: O. sativa DNAJ Homologue, prey clone aa 1-92 (other)
chain: CKVSYIDAILGTTVKVPTVDGMVDLKIPSGTQPGTTLVMSKKGVPLLGKSNARGDQLVRVQVEIPKRLSSDERKLIEELANLNKAQTANSRR
notes: prey; AD fusion; output trait library; also called OsPN29113
B20: Novel Protein PN29119, Fragment, prey clone aa 1-155 (printed -53 to 155) (other)
chain: MEFEADGARWPEPRGDAAGAPPLERGDAPSPRFDSSRALRLLRELGSNVTEDLVVLMPNLLSFLKHDDPVVVNQSIASGTNLFAAVLEEMTLQINKCGRVDAWLEEMWAWTKQFKDAVHNLIHESVPVATKLFAVKFIETWILCFAPQSKSDRMQ
notes: prey; AD fusion; output trait library; clone also holds a portion of the 5' untranslated region; also called OsPN29119
B21: O. sativa salT Gene Product, prey clone aa 6-145 (other)
chain: IGPWGGNGGSAQDISVPPKKLLGVTIYSSDAIRSIAFNYIGVDGQEYAIGPWGGGESTSTEIKLGSSEQIKEISGTHGPVYDLADIVTYLKIVTSANNTYEAGVPNGKEFSIPLQDSGHVVGFFGRSGTLIDAIGIYVHP
notes: prey; AD fusion; output trait library; also called OsAAB53810; PN29086
B22: Novel Protein PN29116, Fragment, prey clone aa 1-169 (other)
chain: GRKPVAAQHYNKGDKDGTSTGSRCTSVAWVPEREGIFVVSHSDGNLYVYDKCKDGNTECTFPAIKDPAQLMISHAKSSKSNPIARWHVCQGSINAISFSPDGAYLATVGRDGYLRVFDFSKEQLIFGGKSYYGALLCCTWSSDGKYLLTGGEDDLVQVWSMDDRKIVAW
notes: prey; AD fusion; output trait library; also called OsPN29116
B23: Novel Protein PN29084, Fragment, Similar to Soybean (Glycine max) Calcium-Dependent Protein Kinase, prey clone aa 1-253 (other)
chain: ESGIFRQILRGKLDLESDPWPSISDSAKDLVRNMLIRDPTKRFTAHEVLCHPWIVDDAVAPDKPIDSAVLSRLKHFSAMNKLKKMALRVIAESLSEEEIGGLKELFKMIDTDNSGTITYDELKNGLKRVGSDLMEPEIQALMDAADIDNSGTIDYGEFLAATLHMNKLEREENLVSAFTFFDKDGSGFITIDELSQACEQFGLSDVHLEDMIKDVDQNNDGQIDYSEFAAMMRKGNAGGANAGGVTSTGGTGR
notes: prey; AD fusion; output trait library; three clones; also called OsPN29084
B24: Novel Protein PN29076, Fragment, prey clone aa 1-187 (other)
chain: ERDISMVNSYPPSAFDCKGWNSASIFIYESDEEIQCLLDWLRDYDPREKELKDSILQWQRHFCHQSSSPLVDPPISGPKGEQLMELPNTKAAVILEQKYGLQLDQDTSDLPKKRGKKIKLSSEDRTYRCDCLEPVWPSRYHCLTCHETYLISTEFEGHNDGKCSKIHQSPDESRENDEPKVKVTKSD
notes: prey; AD fusion; output trait library; also called OsPN29076

Each binder was assayed against T1, O. sativa 14-3-3 Protein Homolog … (assay: yeast two-hybrid).

binding result | Binder
binds | B1
binds | B2
binds | B3
binds | B4
binds | B5
binds | B6
binds | B7
binds | B8
binds | B9
binds | B10
binds | B11
binds | B12
binds | B13

The binders below were run against T2, O. sativa Cellulose Synthase Catalytic … (assay: yeast two-hybrid).
Description: Yeast carrying the target gene construct was combined with yeast carrying the activation domain library. The two yeast strains mated to form diploid yeast and were plated on media that selected for expression of one or more Ga14p-responsive reporter genes. Thus, both hybrid proteins (i.e., the target “bait” protein and the activation domain “prey” protein) were expressed in a yeast reporter strain where an interaction between the test proteins results in transcription of the reporter genes […]. Colonies that arose after incubation were selected for further characterization. The activation domain plasmid was isolated from each colony obtained in the two-hybrid search. The sequence of the insert in this construct was obtained by sequence analysis (e.g., Sanger's dideoxy nucleotide chain termination method; see Ausubel et al., 1988, including updates up to 2002). Thus, the identity of positives obtained from these searches was determined by sequence analysis against proprietary and public (e.g., GENBANK®) nucleic acid and protein databases.
A second bait, namely O. sativa Cellulose Synthase Catalytic Subunit, RSW1-Like (OSCS; PN19707; GENBANK® Accession No. AF030052), was also used.

binding result | Binder
binds | B14
binds | B15
binds | B16
binds | B17
binds | B18
binds | B19
binds | B20
binds | B21
binds | B22
binds | B23
binds | B24

From patent US20060235215A1 (published 2006)
